Consider 167 variants from the RNAGym collection of RNA variant scans (doi:10.7554/elife.80360).

To fix the notation:
B1: CPEB3 Ribozyme (parent)
chain: GGGGGCCACAGCAGAAGCGUUCACGUCGCGGCCCCUGUCAGAUUCUGGUGAAUCUGCGAAUUCUGCUGU

The data set covers variants of B1. As to the kind of experiment: self-cleavage, relative activity (ratio to wild type); higher = more cleavage; co-transcriptional.
Take C7G A15C: the self-cleavage was found to be 0.0463. Then C7G A15G, with 0.248; and C7G A13G, with 0.238; and C7G A13U, with 0.122. The value for C7G A51G was 0.455; that for C7G A51C was 0.306; that for C7G A51U was 0.34. C7G C34U: the self-cleavage was found to be 0.325.

For C7G C34A, the self-cleavage is 0.109. The value for C7G C34G was 0.0956. Then C7G U62C, with 0.285; and C7G U62G, with 0.244; and C7G C33G, with 0.146. The value for C7G C33A was 0.147; that for C7G A40G was 0.376; that for C7G A40U was 0.161. As for C7G A60G, the self-cleavage was determined as 0.175. Take C7G A60U: the self-cleavage amounted to 0.187.

On to C7G U49G, for which the self-cleavage turned out to be 0.469.

Regarding C7G G58U, the self-cleavage worked out at 0.528. C7G G58C: the self-cleavage came to 0.285.

On to C7A U61C, for which the self-cleavage is 0.232.

Regarding C7A U61G, the self-cleavage is 0.378. The value for C7G C18G was 0.116; that for C7G C18U was 0.107. Turning to C7U A8U, the self-cleavage came to 0.945. Regarding C7U A8C, the self-cleavage worked out at 0.954. Turning to C7U A8G, the self-cleavage worked out at 0.918. Turning to C7U A13C, the self-cleavage was 0.871. C7U A13G: the self-cleavage is 0.936. With C7G A16U, the self-cleavage came to 0.0326. Regarding C7G A16C, the self-cleavage was found to be 0.0882. Take C7G A16G: the self-cleavage was 0.329.

Take C7G C22U: the self-cleavage came out at 0.128. The value for C7A U69G was 0.897. The value for C7A U69A was 0.875.

Take C7A U64A: the self-cleavage turned out to be 0.359. Regarding C7A U64G, the self-cleavage amounted to 0.355.

On to C7A U49A, for which the self-cleavage was determined as 0.601. The value for C7A U49C was 0.601; that for C7A U49G was 0.409; that for C7G U26C was 0.247. With C7G G28U, the self-cleavage is 0.0797.

With C7G G41U, the self-cleavage came to 0.121. The value for C7G A10C was 0.703; that for C7G A10U was 0.683.

On to C7G A10G, for which the self-cleavage was 0.671. Then C7G G25C, with 0.0905; and C7G G25U, with 0.0759; and C7G U53G, with 0.147. For C7G U53C, the self-cleavage turned out to be 0.217.

Turning to C7G U53A, the self-cleavage stood at 0.219. Regarding C7G G56C, the self-cleavage was determined as 0.211. Then C7G G56A, with 0.333; and C7A U46G, with 0.654. As for C7G, the self-cleavage is 0.497. Then C7U, with 0.968; and C7G A23C, with 0.319; and C7G G30U, with 0.564.

Regarding C7G U20C, the self-cleavage worked out at 0.143. Then C7G U20G, with 0. Take C7G U20A: the self-cleavage amounted to 0.163. Then C7G G50C, with 0.294. Take C7G G50U: the self-cleavage was 0.465. As for C7G G50A, the self-cleavage stood at 0.456.

For the variant C7G G14U, the self-cleavage is 0.0864.

In the case of C7G G14C, the self-cleavage stood at 0.0631. Then C7A U55C, with 0.208. As to C7A U55G, the self-cleavage was determined as 0.194. The value for C7A U55A was 0.333; that for C7G U55A was 0.124; that for C7G U55C was 0.185.

With C7G U55G, the self-cleavage came to 0.119.

For C7G G47A, the self-cleavage was determined as 0.452.

Turning to C7G U46A, the self-cleavage was determined as 0.453. The value for C7G U46C was 0.38; that for C7G G65C was 0.126.

For the variant C7G G65A, the self-cleavage was 0.162.

In the case of C7G G65U, the self-cleavage was determined as 0.217. The value for C7A U67C was 0.807; that for C7G A52U was 0.301. As to C7G A52C, the self-cleavage is 0.42. Then C7G C35U, with 0.248; and C7G C35G, with 0.0899. Then C7A U62C, with 0.269. Then C7A U62A, with 0.275; and C7G U43G, with 0.29. On to C7G U43A, for which the self-cleavage worked out at 0.274. The value for C7G C45A was 0.378; that for C7G C45U was 0.425. For the variant C7G C45G, the self-cleavage is 0.295. In the case of C7G U44G, the self-cleavage was determined as 0.252. Then C7G U44A, with 0.28; and C7G U44C, with 0.282; and C7U A42C, with 0.901. Then C7U A42U, with 0.899.

On to C7G C39A, for which the self-cleavage came out at 0.141. Take C7G C39U: the self-cleavage worked out at 0.326.

Regarding C7G C39G, the self-cleavage stood at 0.236. Regarding C7G U67C, the self-cleavage worked out at 0.635.

C7G U67A: the self-cleavage was 0.773. On to C7G A8C, for which the self-cleavage amounted to 0.514. The value for C7G A8G was 0.346; that for C7G A8U was 0.614. The value for C7G G11A was 0.281. The value for C7G G17A was 0.11; that for C7G G19U was 0.0728.

Regarding C7G G19A, the self-cleavage was found to be 0.0606. With C7G C57U, the self-cleavage was 0.158. Then C7G C57G, with 0.189.

Regarding C7U A16C, the self-cleavage is 0.145. Then C7U A16U, with 0.617; and C7G C9A, with 0.898; and C7G C9G, with 0.966. The value for C7G C24U was 0.107. Then C7G C24G, with 0.0776.

For the variant C7G U61C, the self-cleavage amounted to 0.175.

Consider C7G U61A, for which the self-cleavage was 0.159. For C7G U61G, the self-cleavage was 0.172. The value for C7G C32G was 0.106; that for C7G C32U was 0.177; that for C7G C27G was 0.112. Then C7G C27U, with 0.0215. The value for C7G C63G was 0.113; that for C7G C63U was 0.316; that for C7G C63A was 0.237. Regarding C7G A59G, the self-cleavage was 0.307.

C7U A23C: the self-cleavage came out at 0.87. On to C7U A23U, for which the self-cleavage stood at 0.955. In the case of C7U A23G, the self-cleavage is 0.909.

On to C7U A51C, for which the self-cleavage came to 0.966. For the variant C7U A51U, the self-cleavage worked out at 0.976.

For C7U A51G, the self-cleavage came out at 0.984. Then C7G C54G, with 0.17; and C7G C54A, with 0.138.

Consider C7G C54U, for which the self-cleavage is 0.507. Turning to C7U A10G, the self-cleavage came out at 0.947. The value for C7U A10U was 0.981; that for C7U A10C was 0.994; that for C7U A40U was 0.683. Then C7U A40G, with 0.934. On to C7U A40C, for which the self-cleavage worked out at 0.282.

With C7G U64C, the self-cleavage came to 0.17. The value for C7G U64G was 0.232; that for C7G U64A was 0.279.

Regarding C7G G31U, the self-cleavage was 0.521. The value for C7G G31A was 0.45. On to C7G G31C, for which the self-cleavage was 0.101. The value for C7G U36C was 0.0551; that for C7G U36G was 0.147. Turning to C7A U53G, the self-cleavage worked out at 0.177. Then C7G A42G, with 0.306; and C7G A42C, with 0.198; and C7G U69G, with 0.779.

Take C7G U69C: the self-cleavage worked out at 0.861. The value for C7U A52C was 0.914; that for C7G U21C was 0.173.

As to C7G C66G, the self-cleavage came out at 0.176. In the case of C7G C66A, the self-cleavage is 0.134. The value for C7G C66U was 0.459. Consider C7G G68A, for which the self-cleavage amounted to 0.824.

Regarding C7G G68U, the self-cleavage was 0.808. The value for C7U A15G was 0.927; that for C7U A15U was 0.534. Regarding C7U A15C, the self-cleavage came out at 0.693. Then C7G G48U, with 0.548; and C7G G48A, with 0.457.
